Eight molecules from PMC9879097, “Borrelia burgdorferi DnaA and the Nucleoid-Associated Protein EbfC Coordinate Expression of the dnaX-ebfC Operon” can be followed below.

The target in series [1] is T1, EbfC (Borrelia burgdorferi, UniProt O51418 1-99).
T1 sequence: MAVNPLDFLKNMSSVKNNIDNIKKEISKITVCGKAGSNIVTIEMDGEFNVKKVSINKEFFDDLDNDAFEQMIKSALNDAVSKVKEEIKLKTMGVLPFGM
Kind of series: competition; 50x excess vs N13; only smaller complex eliminated; 50 mM Tris-HCl (pH not stated), 50 mM KCl, 1 mM EDTA, 1 mM PMSF, 1 mM DTT, 0.01% Tween 20, 10% glycerol; room temperature 15 min; GST-DnaA reactions with 1 mM MgCl2 and 1 mM ATP or ADP; 100 nM DNA or 20 nM RNA probe. The following applies: protein: recombinant; tags: N-terminal 6xHis (pET200); chain copies: 2.

In series [2] the target is T1, EbfC. Kind of series: EMSA; poly(dI-dC) 2.5 ng/uL; 3.75-30 uM EbfC; 50 mM Tris-HCl (pH not stated), 50 mM KCl, 1 mM EDTA, 1 mM PMSF, 1 mM DTT, 0.01% Tween 20, 10% glycerol; room temperature 15 min; GST-DnaA reactions with 1 mM MgCl2 and 1 mM ATP or ADP; 100 nM DNA or 20 nM RNA probe. The following applies: protein: recombinant; tags: N-terminal 6xHis (pET200); chain copies: 2; label: 5' IRDye800 on strand 1; blunt. Background: A gel shift assay detects complexes by their altered migration in electrophoresis.

A further series deals with T2, GST-DnaA (Borrelia burgdorferi, UniProt P33768 1-486).
T2 sequence: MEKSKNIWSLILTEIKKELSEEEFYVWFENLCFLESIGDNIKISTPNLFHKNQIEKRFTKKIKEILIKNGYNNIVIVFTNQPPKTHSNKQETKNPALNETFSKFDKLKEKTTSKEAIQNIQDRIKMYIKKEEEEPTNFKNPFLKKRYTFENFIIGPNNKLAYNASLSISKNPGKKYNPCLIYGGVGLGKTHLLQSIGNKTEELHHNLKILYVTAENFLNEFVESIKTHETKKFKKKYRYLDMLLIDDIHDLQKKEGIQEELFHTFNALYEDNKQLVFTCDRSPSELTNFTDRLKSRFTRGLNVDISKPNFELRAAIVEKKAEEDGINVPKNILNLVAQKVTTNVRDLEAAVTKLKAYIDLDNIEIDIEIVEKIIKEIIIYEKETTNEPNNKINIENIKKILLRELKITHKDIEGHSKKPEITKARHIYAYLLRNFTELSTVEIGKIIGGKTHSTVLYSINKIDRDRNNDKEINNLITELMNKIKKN
Kind of series: competition; ATP, Mg2+; 10x excess vs N1; 50 mM Tris-HCl (pH not stated), 50 mM KCl, 1 mM EDTA, 1 mM PMSF, 1 mM DTT, 0.01% Tween 20, 10% glycerol; room temperature 15 min; GST-DnaA reactions with 1 mM MgCl2 and 1 mM ATP or ADP; 100 nM DNA or 20 nM RNA probe. The following applies: protein: recombinant; tags: N-terminal GST; blunt.

Series [3] concerns the target T1, EbfC. In words: EMSA; 5-15 uM EbfC; two complexes; 50 mM Tris-HCl (pH not stated), 50 mM KCl, 1 mM EDTA, 1 mM PMSF, 1 mM DTT, 0.01% Tween 20, 10% glycerol; room temperature 15 min; GST-DnaA reactions with 1 mM MgCl2 and 1 mM ATP or ADP; 100 nM DNA or 20 nM RNA probe. The following applies: protein: recombinant; tags: N-terminal 6xHis (pET200); chain copies: 2; label: 5' Alexa Fluor 647 (probe).

The target in series [4] is T1, EbfC. Kind of series: competition; 50x excess vs N13; 50 mM Tris-HCl (pH not stated), 50 mM KCl, 1 mM EDTA, 1 mM PMSF, 1 mM DTT, 0.01% Tween 20, 10% glycerol; room temperature 15 min; GST-DnaA reactions with 1 mM MgCl2 and 1 mM ATP or ADP; 100 nM DNA or 20 nM RNA probe. The following applies: protein: recombinant; tags: N-terminal 6xHis (pET200); chain copies: 2.

B1: unlabeled dnaX-ebfC RNA competitor (ssRNA)
RNA: GGAUUUGUCUUUUUGUAACUUUCAAUUUUA
On to B1, for which, in the series with EbfC [1], the binding result is “binds”.

B2: probe 2, consensus EbfC motif (dsDNA)
DNA 1: GGATTTGTCTTTTTGTAACTTTCAATTTTA
DNA 2: TAAAATTGAAAGTTACAAAAAGACAAATCC
Turning to B2, in the series with EbfC [2], the binding result was “binds”.

B3: Competitor 5 (C5) (dsDNA)
DNA 1: AAATGCAATGTTTTGCTTTATGTTAAGATATGGATTTGTCTTTTT
DNA 2: AAAAAGACAAATCCATATCTTAACATAAAGCAAAACATTGCATTT
Turning to B3, the binding result with GST-DnaA was “no binding”.

B4: EbfC RNA, dnaX-ebfC 5' UTR 30-mer (ssRNA)
RNA: GGAUUUGUCUUUUUGUAACUUUCAAUUUUA
Regarding B4, in the series with EbfC [3], the binding result was “binds”.

B5: flaB RNA competitor (ssRNA)
RNA: AGGCAAAAGGAUUUGCCAAAGUCAGAAAUU
Consider B5, for which the binding result with EbfC [4] is reported as “no binding”.

B6: Competitor 2 (C2) (dsDNA)
DNA 1: GGATTTGTCTTTTTGTAACTTTCAATTTTATTATATTTTTTATGT
DNA 2: ACATAAAAAATATAATAAAATTGAAAGTTACAAAAAGACAAATCC
On to B6, for which the binding result with GST-DnaA is given as “binds”.

B7: Competitor 3 (C3) (dsDNA)
DNA 1: TTCATAAAATTCTTTTAAAGTAATAGCTCTGAGATATAAATATGT
DNA 2: ACATATTTATATCTCAGAGCTATTACTTTAAAAGAATTTTATGAA
B7: the binding result in the series with GST-DnaA is given as “binds”.

B8: Competitor 6 (C6) (dsDNA)
DNA 1: TTTCAATTTTATTATATTTTTTATGTTTCATAAAATTCTTTTAAA
DNA 2: TTTAAAAGAATTTTATGAAACATAAAAAATATAATAAAATTGAAA
Turning to B8, the binding result in the series with GST-DnaA is recorded as “no binding”.
